The results in this text go back to PMC11151058, “The Transpeptidase Sortase A Binds Nucleic Acids and Mediates Mammalian Cell Labeling”.

In data set [1] the target is mgSrtA-triple (Staphylococcus aureus, UniProt Q2FV99 60-206, P94R;H120A;D124G;D160N;D165A;C184A;Y187L;E189R;K190E;K196T;R197A;F200L). The data set is described as follows: band shift, SDS western blot; Western-blot shift: 10 uM protein, 20 uM oligo, HBSS, 37 C, 30 min (Fig 3D 10 min); EMSA: HBSS, 37 C, 30 min, 6% PAGE; MST: 20 mM HEPES, 300 mM NaCl, pH 6.8, 0.1% Tween 20, 25 C. As to conditions: protein: recombinant; tags: N-terminal 6xHis (pET-28a); label: 5'Biotin, 3'FITC. Background: A gel shift assay detects complexes by their altered migration in electrophoresis.

The target of data set [2] is WTSrtA (Staphylococcus aureus, UniProt Q2FV99 60-206). The data set is described as above. As to conditions: protein: recombinant; tags: N-terminal 6xHis (pET-28a); label: 5'Biotin, 3'FITC.
Data set [3] has as its target mgSrtA-C184A (Staphylococcus aureus, UniProt Q2FV99 60-206, P94R;D124G;D160N;D165A;C184A;Y187L;E189R;K190E;K196T;F200L). The description is as above. As to conditions: protein: recombinant; tags: N-terminal 6xHis (pET-28a); label: 5'Biotin, 3'FITC.
Data set [4] has as its target mgSrtA-H120A (Staphylococcus aureus, UniProt Q2FV99 60-206, P94R;H120A;D124G;D160N;D165A;Y187L;E189R;K190E;K196T;F200L). Described as above. As to conditions: protein: recombinant; tags: N-terminal 6xHis (pET-28a); label: 5'Biotin, 3'FITC.
The target of data set [5] is mgSrtA-mono (Staphylococcus aureus, UniProt Q2FV99 60-206, P94R;D124G;N132A;K137A;Y143A;D160N;D165A;Y187L;E189R;K190E;K196T;F200L). Described as above. The conditions noted are these: protein: recombinant; tags: N-terminal 6xHis (pET-28a); label: 5'Biotin, 3'FITC.
Data set [6] deals with T1, mgSrtA (Staphylococcus aureus, UniProt Q2FV99 60-206, P94R;D124G;D160N;D165A;Y187L;E189R;K190E;K196T;F200L). The description is as above. The conditions noted are these: protein: recombinant, tags: N-terminal 6xHis (pET-28a), label: 5'Biotin.
The target of data set [7] is mgSrtA-R197A (Staphylococcus aureus, UniProt Q2FV99 60-206, P94R;D124G;D160N;D165A;Y187L;E189R;K190E;K196T;R197A;F200L). The description is as above. The conditions noted are these: protein: recombinant; tags: N-terminal 6xHis (pET-28a); label: 5'Biotin, 3'FITC.
Data set [8] deals with mgSrtA-L200F (Staphylococcus aureus, UniProt Q2FV99 60-206, P94R;D124G;D160N;D165A;Y187L;E189R;K190E;K196T). Described as above. As to conditions: protein: recombinant; tags: N-terminal 6xHis (pET-28a); label: 5'Biotin, 3'FITC.
For data set [9], the target named is 5M SrtA (Staphylococcus aureus, UniProt Q2FV99 60-206, P94R;D160N;D165A;K190E;K196T). The data set is described as above. The conditions noted are these: protein: recombinant; tags: N-terminal 6xHis (pET-28a); label: 5'Biotin, 3'FITC.
Data set [10] addresses T1, mgSrtA. The data set is described as follows: band shift, SDS western blot; 20 uM oligo; Western-blot shift: 10 uM protein, 20 uM oligo, HBSS, 37 C, 30 min (Fig 3D 10 min); EMSA: HBSS, 37 C, 30 min, 6% PAGE; MST: 20 mM HEPES, 300 mM NaCl, pH 6.8, 0.1% Tween 20, 25 C. The conditions noted are these: protein: recombinant; tags: N-terminal 6xHis (pET-28a); label: 5'Biotin.
Data set [11] concerns the target T1, mgSrtA. The data set is described as follows: band shift, SDS western blot; 1 uM oligo; Western-blot shift: 10 uM protein, 20 uM oligo, HBSS, 37 C, 30 min (Fig 3D 10 min); EMSA: HBSS, 37 C, 30 min, 6% PAGE; MST: 20 mM HEPES, 300 mM NaCl, pH 6.8, 0.1% Tween 20, 25 C. The conditions noted are these: protein: recombinant; tags: N-terminal 6xHis (pET-28a); label: 5'Biotin.

The target in data set [12] is T1, mgSrtA. Kind of data set: band shift, SDS western blot; 50 uM oligo; Western-blot shift: 10 uM protein, 20 uM oligo, HBSS, 37 C, 30 min (Fig 3D 10 min); EMSA: HBSS, 37 C, 30 min, 6% PAGE; MST: 20 mM HEPES, 300 mM NaCl, pH 6.8, 0.1% Tween 20, 25 C. As to conditions: protein: recombinant; tags: N-terminal 6xHis (pET-28a); label: 5'Biotin.

B1: BF 4G (ssDNA)
DNA: GGGG
For the molecule B1, the binding result in [1], in data set [2], in data set [3], in data set [4], in data set [5] and in data set [6] (3'FITC) was “binds” in each case. The binding result in data set [7], in [8] and in data set [9] was “binds” each time.

B2: 8G (ssDNA)
DNA: GGGGGGGG
With B2, the binding result in data set [10] was “binds”.

B3: 15G (ssDNA)
DNA: GGGGCGGGGTGGGGC
As for B3, the binding result in [11] is recorded as “binds”.

B4: 20G (ssDNA)
DNA: GGGGCGGGGTGGGGCGGGGT
As for B4, the binding result in [11] was “binds”.

B5: 4G (Fig S17) (ssDNA)
DNA: GGGG
Turning to B5, the binding result in data set [6] is recorded as “binds”.

B6: 6G (ssDNA)
DNA: GGGGGG
For the molecule B6, the binding result in data set [12] is “binds”.
